Patent US10513702B2, “Synthetic hammerhead ribozymes with ligand-responsive tertiary interactions” (The Board of Trustees of the Leland Stanford Junior …, priority 2015, dated 2019)
Numbering of substitutions follows the chain as printed.

B1: L2b8-a1: previously optimized secondary-structure switching theophylline-responsive RNA device, SEQ ID NO: 2 (nucleic acid)
chain: AAACAAACAAAGCUGUCACCGGAAUCAAGGUCCGGUCUGAUGAGUCCGUUGUCCAUACCAGCAUCGUCUUGAUGCCCUUGGCAGGGACGGGACGGAGGACGAAACAGCAAAAAGAAAAAUAAAAA
modifications: listed as RNA, chemistry not fully specified
B2: L2b8-t47: previously optimized secondary-structure switching theophylline-responsive RNA device, SEQ ID NO: 3 (nucleic acid)
DNA: AAACAAACAAAGCUGUCACCGGAUGUGCUUUCCGGUCUGAUGAGUCCGUUGAGUAUACCAGCAUCGUCUUGAUGCCCUUGGCAGACUGUAUACGGAGGACGAAACAGCAAAAAGAAAAAUAAAAA
modifications: listed as RNA, chemistry not fully specified
B3: L2b8: previously optimized secondary-structure switching theophylline-responsive RNA device, SEQ ID NO: 1 (nucleic acid)
DNA: B1 chain with A24U, U25G, C26U, A27G, A28C, G29U, G30U
modifications: listed as RNA, chemistry not fully specified

Legend:
[1] = test system: GFP reporter transcript (device in 3′ UTR; GFP/mCherry two-color reporter construct); assay: Flow cytometry validation of reconstructed switch/ribozyme sequences in two-color reporter plasmid; assay type: cell-based, budding yeast strain W303a; settings: for μ (-tgt), median GFP/mCherry ratio (basal level): absence of target ligand, at least 3 independent transformants, ± standard error of the mean
From the text: The RNA devices were individually synthesized, integrated into the two-color characterization plasmid, and assayed in yeast via flow cytometry. The μ values obtained from flow cytometry analysis of the reconstructed sequences are tightly correlated with those obtained through the FACS-Seq analysis (FIG. 3a; R^2=0.98). We compared the validated activation ratios (μ−target/μ+target) for several of the best performing switches from the tertiary interaction switch libraries with those from previously optimized RNA devices that function through secondary structure rearrangements (FIG. 3b, Table 1).
Specific switch sequences were synthesized from overlapping oligonucleotides using overlap-extension PCR as described for the device library constructions. These were gap-repair transformed into the yeast two-color screening plasmid along with control plasmids by the lithium acetate/single-stranded carrier DNA/polyethylene glycol method, with each switch sequence verified using Sanger sequencing. At least three individual colonies were picked and inoculated in SC-URA media. Cultures were grown overnight, back-diluted 20:1 to an OD600˜0.07 and then grown 6 hrs in the absence and presence of a ligand target, at the same ligand concentrations as used for the FACS-Seq assays. The cells were then spun down and resuspended in an equal volume of 1×PBS buffer (Life Technologies) with 1% BSA (Fraction V, EMD Millipore) and a DAPI viability dye (Life Technologies). GFP was excited at 488 nm and measured with a bandpass filter of 525/50 nm. mCherry was excited at 561 nm and measured with a bandpass filter of 615/20 nm. DAPI was excited at 405 nm and measured with a bandpass filter of 450/50 nm. Prior to each use, voltages of fluorescence PMT detectors were calibrated with MACSQuant calibration beads to fix GFP and mCherry levels. For each culture, 10 μl of sample was analyzed, which captured 50,000-150,000 events while also providing cell density measurements. The data was analyzed using a custom MATLAB program to gate for mCherry expression above the no-color controls and non-saturating values for GFP and mCherry, and then extract μ, the median GFP/mCherry ratio. Since cultures that contain tetracycline produce non-specific fluorescence in the GFP emission region, the μ values for this condition were corrected by subtracting a fixed offset.
Note that the NGS data is based on cells sorted through a FACSAria II Cell Sorter. An in-house flow cytometer (Miltenyi Biotec MACSQuant VYB) was used for validation measurements. The GFP and mCherry levels are given in arbitrary fluorescence units that differ between the two instruments, but in all cases are treated as a linear function of the actual protein levels in order to compute μ. […]

[2] = test system: GFP reporter transcript (device in 3′ UTR; GFP/mCherry two-color reporter construct); assay: Flow cytometry dose-response assays on reconstructed theophylline-responsive RNA devices; assay type: cell-based, budding yeast strain W303a; settings: theophylline 0-20 mM; 4-parameter logistic fit, Hill slope 1.0; [80% confidence interval]
Protocol: Median GFP/mCherry ratios were computed for at least triplicate independent cultures assayed at theophylline concentrations of 0, 0.16, 0.31, 0.62, 1.25, 2.5, 5, 10, and 20 mM. The data were fit to a 4-parameter logistic model with the Hill slope fixed at 1.0; the 80% confidence interval for the EC50 fit is shown. A range of one standard deviation over the replicates is shown for the mean activity levels and activity ratio.

[3] = test system: RNA device self-cleavage (ribozyme); assay: In vitro SPR-based ribozyme cleavage assay; assay type: biochemical; settings: 500 μM MgCl2, 25° C.
Protocol: Representative FACS-Seq sort identified theophylline-responsive RNA device cleavage kinetics and ligand sensitivity were determined by surface plasmon resonance (SPR), using previously described protocols. Briefly, the RNA device DNA templates were amplified by PCR (PFU Ultrall HS; Agilent) with primers containing overhangs corresponding to the T7 RNAP promoter and cis-blocking sequences that prevent device cleavage during in vitro T7 transcription (Table 2; SPR templates). A second PCR (KAPA HiFi PCR Kit; Kapa Biosystems) with short primers was performed to enrich the product for full-length sequences (Table 2; SPR_fwd_primer, SPR_rev_primer). […]
SPR-based cleavage assays were performed at various theophylline concentrations to generate dose-response curves. The RNA dissociation rate constant (kd) at each theophylline concentration ([theo]) was fit to the sigmoidal equation kd=kd,min+(kd,max)/(1+[theo]/IC50) using MATLAB, where kd,max and kd,min are the maximum and minimum RNA dissociation rate constants, evaluated in absence of and with the highest theophylline concentration assayed, respectively. […]

Molecule | μ (-tgt), median GFP/mCherry ratio (basal level) [1] | EC50 [2] | kd, ribozyme cleavage (dissociation) rate constant ([3]; 1 mM theophylline) | kd, ribozyme cleavage (dissociation) rate constant ([3]; absence of ligand (0 mM theophylline)) | Activation Ratio ([1]; 5 mM vs 0 mM theophylline, ± SEM)
sTRSVctl: inactive control ribozyme with scrambled catalytic core, SEQ ID NO: 8 (DNA GCUGUCACCGGAUGUGCUUUCCGGUACGUGAGGUCCGUGAGGACAGAACAGC; listed as RNA, chemistry not fully specified) [reference compound] | 5.8±0.3 | – | – | – | –
sTRSV: wild-type tobacco ringspot virus hammerhead ribozyme, SEQ ID NO: 7; loop I TGTGCTT, loop II GTGA (DNA GCUGUCACCGGAUGUGCUUUCCGGUCUGAUGAGUCCGUGAGGACGAAACAGC; listed as RNA, chemistry not fully specified) [reference compound] | 0.051±0.003 | – | – | – | –
B1 | 0.109±0.004 | 10.4 mM | 0.17 min⁻¹ | 0.6 min⁻¹ | –
B2 | – | 5.7 mM | – | – | 2.8±0.3
B3 | – | 4.9 mM | – | – | –
